Data on 42 variants can be found in the Human Domainome abundance scans (Beltran et al. 2025).

The labels stand for the following.
B1: Double-stranded RNA-specific adenosine deaminase, residues 296 to 358; numbered along this chain, P55265 (parent)
chain: MAEIKEKICDYLFNVSDSSALNLAKNIGLTKARDINAVLIDMERQGDVYRQGTTPPIWHLTDK

± gives the uncertainty stated by the source.

Variants of B1 are the subject of the data set. The experiment in a line: abundance fitness (aPCA) (normalised: wild type 0, dead -1); higher = more abundant; growth selection in yeast, the domain comes from the species named. Particulars: Homo sapiens.
As for MAEIKEKIEDYLFNVSDSSALNLAKNIGLTKARDINAVLIDMERQGDVYRQGTTPPIWHLTDK, the abundance fitness is 0.002 ± 0.053.

For MAEIKEKIDDYLFNVSDSSALNLAKNIGLTKARDINAVLIDMERQGDVYRQGTTPPIWHLTDK, the abundance fitness is -0.678 ± 0.14.

For the variant MAEIKEKIHDYLFNVSDSSALNLAKNIGLTKARDINAVLIDMERQGDVYRQGTTPPIWHLTDK, the abundance fitness was -0.125 ± 0.12.

In the case of MAEIKEKIGDYLFNVSDSSALNLAKNIGLTKARDINAVLIDMERQGDVYRQGTTPPIWHLTDK, the abundance fitness is -0.389 ± 0.036.

Take MAEIKEKIIDYLFNVSDSSALNLAKNIGLTKARDINAVLIDMERQGDVYRQGTTPPIWHLTDK: the abundance fitness turned out to be 0.338 ± 0.085.

On to MAEIKEKIRDYLFNVSDSSALNLAKNIGLTKARDINAVLIDMERQGDVYRQGTTPPIWHLTDK, for which the abundance fitness worked out at 0.233 ± 0.037.

Consider MAEIKEKIMDYLFNVSDSSALNLAKNIGLTKARDINAVLIDMERQGDVYRQGTTPPIWHLTDK, for which the abundance fitness worked out at 0.042 ± 0.062.

For MAEIKEKIFDYLFNVSDSSALNLAKNIGLTKARDINAVLIDMERQGDVYRQGTTPPIWHLTDK, the abundance fitness amounted to 0.086 ± 0.11.

Regarding MAEIKEKITDYLFNVSDSSALNLAKNIGLTKARDINAVLIDMERQGDVYRQGTTPPIWHLTDK, the abundance fitness was determined as 0.119 ± 0.054.

MAEIKEKIYDYLFNVSDSSALNLAKNIGLTKARDINAVLIDMERQGDVYRQGTTPPIWHLTDK: the abundance fitness was determined as 0.09 ± 0.077.

In the case of MAEIKEKIVDYLFNVSDSSALNLAKNIGLTKARDINAVLIDMERQGDVYRQGTTPPIWHLTDK, the abundance fitness worked out at 0.217 ± 0.052.

For the variant MAEIKEKIKDYLFNVSDSSALNLAKNIGLTKARDINAVLIDMERQGDVYRQGTTPPIWHLTDK, the abundance fitness worked out at 0.278 ± 0.052.

On to MAEIKEKIWDYLFNVSDSSALNLAKNIGLTKARDINAVLIDMERQGDVYRQGTTPPIWHLTDK, for which the abundance fitness is -0.018 ± 0.055.

Turning to MAEIKEKILDYLFNVSDSSALNLAKNIGLTKARDINAVLIDMERQGDVYRQGTTPPIWHLTDK, the abundance fitness was determined as 0.168 ± 0.046.

As for MAEIKEKIQDYLFNVSDSSALNLAKNIGLTKARDINAVLIDMERQGDVYRQGTTPPIWHLTDK, the abundance fitness is -0.105 ± 0.075.

As for MAEIKEKIADYLFNVSDSSALNLAKNIGLTKARDINAVLIDMERQGDVYRQGTTPPIWHLTDK, the abundance fitness is -0.143 ± 0.05.

As for MAEIKEKINDYLFNVSDSSALNLAKNIGLTKARDINAVLIDMERQGDVYRQGTTPPIWHLTDK, the abundance fitness came to 0.077 ± 0.12.

In the case of MAEIKEMICDYLFNVSDSSALNLAKNIGLTKARDINAVLIDMERQGDVYRQGTTPPIWHLTDK, the abundance fitness was -0.055 ± 0.15.

For MAEIKEFICDYLFNVSDSSALNLAKNIGLTKARDINAVLIDMERQGDVYRQGTTPPIWHLTDK, the abundance fitness is -0.543 ± 0.088.

Take MAEIKESICDYLFNVSDSSALNLAKNIGLTKARDINAVLIDMERQGDVYRQGTTPPIWHLTDK: the abundance fitness was -0.467 ± 0.067.

For the variant MAEIKECICDYLFNVSDSSALNLAKNIGLTKARDINAVLIDMERQGDVYRQGTTPPIWHLTDK, the abundance fitness was -1.01 ± 0.12.

With MAEIKEDICDYLFNVSDSSALNLAKNIGLTKARDINAVLIDMERQGDVYRQGTTPPIWHLTDK, the abundance fitness was -0.533 ± 0.14.

As to MAEIKEAICDYLFNVSDSSALNLAKNIGLTKARDINAVLIDMERQGDVYRQGTTPPIWHLTDK, the abundance fitness was -0.348 ± 0.066.

On to MAEIKEPICDYLFNVSDSSALNLAKNIGLTKARDINAVLIDMERQGDVYRQGTTPPIWHLTDK, for which the abundance fitness is -0.906 ± 0.27.

As to MAEIKEYICDYLFNVSDSSALNLAKNIGLTKARDINAVLIDMERQGDVYRQGTTPPIWHLTDK, the abundance fitness is -0.796 ± 0.085.

MAEIKERICDYLFNVSDSSALNLAKNIGLTKARDINAVLIDMERQGDVYRQGTTPPIWHLTDK: the abundance fitness was -0.266 ± 0.062.

On to MAEIKEWICDYLFNVSDSSALNLAKNIGLTKARDINAVLIDMERQGDVYRQGTTPPIWHLTDK, for which the abundance fitness was -0.471 ± 0.27.

With MAEIKEIICDYLFNVSDSSALNLAKNIGLTKARDINAVLIDMERQGDVYRQGTTPPIWHLTDK, the abundance fitness is -0.779 ± 0.11.

On to MAEIKEVICDYLFNVSDSSALNLAKNIGLTKARDINAVLIDMERQGDVYRQGTTPPIWHLTDK, for which the abundance fitness was -0.641 ± 0.092.

Take MAEIKEQICDYLFNVSDSSALNLAKNIGLTKARDINAVLIDMERQGDVYRQGTTPPIWHLTDK: the abundance fitness was -0.938 ± 0.39.

As to MAEIKELICDYLFNVSDSSALNLAKNIGLTKARDINAVLIDMERQGDVYRQGTTPPIWHLTDK, the abundance fitness was -0.402 ± 0.067.

Regarding MAEIKEGICDYLFNVSDSSALNLAKNIGLTKARDINAVLIDMERQGDVYRQGTTPPIWHLTDK, the abundance fitness is -0.775 ± 0.086.

On to MAEIKENICDYLFNVSDSSALNLAKNIGLTKARDINAVLIDMERQGDVYRQGTTPPIWHLTDK, for which the abundance fitness was -0.534 ± 0.08.

For the variant MAEIKWKICDYLFNVSDSSALNLAKNIGLTKARDINAVLIDMERQGDVYRQGTTPPIWHLTDK, the abundance fitness was -0.793 ± 0.088.

Regarding MAEIKCKICDYLFNVSDSSALNLAKNIGLTKARDINAVLIDMERQGDVYRQGTTPPIWHLTDK, the abundance fitness is -0.654 ± 0.21.

As for MAEIKYKICDYLFNVSDSSALNLAKNIGLTKARDINAVLIDMERQGDVYRQGTTPPIWHLTDK, the abundance fitness is -0.832 ± 0.26.

Regarding MAEIKSKICDYLFNVSDSSALNLAKNIGLTKARDINAVLIDMERQGDVYRQGTTPPIWHLTDK, the abundance fitness was -0.39 ± 0.062.

With MAEIKHKICDYLFNVSDSSALNLAKNIGLTKARDINAVLIDMERQGDVYRQGTTPPIWHLTDK, the abundance fitness is -0.557 ± 0.1.

Take MAEIKIKICDYLFNVSDSSALNLAKNIGLTKARDINAVLIDMERQGDVYRQGTTPPIWHLTDK: the abundance fitness was -0.886 ± 0.15.

Turning to MAEIKRKICDYLFNVSDSSALNLAKNIGLTKARDINAVLIDMERQGDVYRQGTTPPIWHLTDK, the abundance fitness is -0.338 ± 0.056.

Regarding MAEIKDKICDYLFNVSDSSALNLAKNIGLTKARDINAVLIDMERQGDVYRQGTTPPIWHLTDK, the abundance fitness is -0.517 ± 0.15.

Consider MAEIKVKICDYLFNVSDSSALNLAKNIGLTKARDINAVLIDMERQGDVYRQGTTPPIWHLTDK, for which the abundance fitness is -0.589 ± 0.069.
